Consider 1 molecule from patent US5993803A, “Method of reducing the severity of host vs graft reaction by down-regulating hsp60 autoimmunity” (Yeda Research and Development Co., Ltd., priority 1996, dated 1999).

Entries after “also recorded” stand apart in the source; their conditions may differ.

The test system of experiment [1] is BALB/c (H-2^d) skin allograft rejection in C57BL/6 (H-2^b) mice. The experiment is classed as in vivo, mouse. The following applies: C57BL/6 recipients; 50 μg in incomplete Freund's adjuvant s.c. 2 weeks before transplantation; Wilcoxon test; FIG. 3A.
Description: (§1) FIGS. 3A and 3B show the effects of treating C57BL6 (H-2^b) mice (FIG. 3A) or wild-type NOD (H-2^g7) mice (FIG. 3B) with hsp60 (50 μg in incomplete Freund's adjuvant; Sigma) administered subcutaneously in the back 2 weeks before transplantation of BALB/c (H-2^d) skin (Elias et al., 1994; Elias et al., 1995). […] Control mice were untreated (open squares) or treated with incomplete Freund's adjuvant containing 50 μg of recombinant glutathione transferase (open diamonds).
In experiment [2] the test system is BALB/c (H-2^d) skin allograft rejection in wild-type NOD (H-2^g7) mice. The class given is in vivo, mouse. Conditions: wild-type NOD recipients; 50 μg in incomplete Freund's adjuvant s.c. 2 weeks before transplantation; Wilcoxon test; FIG. 3B.
Description: as §1
Wild-type NOD (H-2^g7) mice were treated with various hsp60 peptides in incomplete Freund's adjuvant. […] Control mice were untreated (open square) or were treated with incomplete Freund's adjuvant containing 50 μg of peptide p11, a control non-immunogenic hsp60 peptide (closed diamond). […] Each group contained 10-12 mice.
Patches of dorsal skin of one cm^2 were removed from anesthetized recipient mice treated with Nembutal 6 mg/ml, 0.25 ml per mouse and replaced by the donor skin grafts. Histoacryl (B. Braun Meleungen AG, D-34209 Melsungen, Germany) was applied around the grafts and Nobecutan (ASTR, Astra Tech, POB 13, Glos G15, UK) was sprayed over them.
Experiment [3] deals with spleen cells of treated NOD or C57BL mice stimulated with irradiated BALB/c spleen cells. The experiment in a line: Mixed lymphocyte reaction (MLR) of spleen cells from treated, grafted mice with irradiated BALB/c spleen cells. The class given is cell-based, mouse. An excerpt: T cells reactive to hsp60 and other hsp molecules have been isolated from cardiac allografts (Moliterno et al., 1995) as well as from other inflammatory lesions (Selmaj et al., 1991; Mor et al., 1992). […] It is theorized that the constitutive hyper-expression of hsp60 in the donor Eα-hsp60 skin amplifies the activation of anti-hsp60 autoimmune T cells at the site and enhance the local immune response by adding pro-inflammatory (TH1-type) cytokines, such as INFγ (Finkelman et al., 1990), to the allograft reaction, thereby inciting and abetting other T cells responsive to the foreign antigens. Conversely, hsp60 autoimmune T cells that have been activated to produce anti-inflammatory cytokines of the TH2-type, such as IL-10, should serve to shut down the effector immune reaction by a form of by-stander suppression (Weiner et al., 1994). To test whether treatment with hsp60 peptides might modify the cytokine response, NOD or C57BL mice were treated with hsp60 or with hsp60 peptide p12. Control mice were untreated or were treated with saline emulsified in IFA. The mice were grafted with BALB/c skin grafts and twenty days later, just at the beginning of graft rejection in the control mice, groups of 5-10 mice were sacrificed and their spleen cells assayed individually in a standard mixed lymphocyte reaction (MLR) with irradiated BALB/c spleen cells as stimulators (Lohse et al., 1990). […] However, the MLR media were also tested for the presence of the TH1 cytokine IFNγ and the TH2 cytokine IL-10.

B1: hsp60: Recombinant human 60 kDa heat shock protein, SEQ ID NO:1 (protein, UniProt P10809 27-573, looked up)
60 kDa heat shock protein, …: AKDVKFGADARALMLQGVDLLADAVAVTMGPKGRTVIIEQSWGSPKVTKDGVTVAKSIDLKDKYKNIGAKLVQDVANNTNEEAGDGTTTATVLARSIAKEGFEKISKGANPVEIRRGVMLAVDAVIAELKKQSKPVTTPEEIAQVATISANGDKEIGNIISDAMKKVGRKGVITVKDGKTLNDELEIIEGMKFDRGYISPYFINTSKGQKCEFQDAYVLLSEKKISSIQSIVPALEIANAHRKPLVIIAEDVDGEALSTLVLNRLKVGLQVVAVKAPGFGDNRKNQLKDMAIATGGAVFGEEGLTLNLEDVQPHDLGKVGEVIVTKDDAMLLKGKGDKAQIEKRIQEIIEQLDVTTSEYEKEKLNERLAKLSDGVAVLKVGGTSDVEVNEKKDRVTDALNATRAAVEEGIVLGGGCALLRCIPALDSLTPANEDQKIGIEIIKRTLKIPAMTIAKNAGVEGSLIVEKIMQSSSEVGYDAMAGDFVNMVEKGIIDPTKVVRTALLDAAGVASLLTTAEVVVTEIPKEEKDPGMGAMGGMGGGMGGGMF
Consider B1, for which the “survival of BALB/c skin grafts (delay in skin allograft rejection)” value is on record as “significantly prolonged survival; also recorded: significant” in experiment [1] and “delayed rejection; also recorded: significant” in experiment [2]. For the same molecule, in experiment [3] (spleen cells taken 20 days after BALB/c skin grafting, hsp60 and p12 treated mice reported together), the “T-cell proliferation by thymidine incorporation in MLR, treated vs control groups” value was “no significant differences”. Moreover, the “IL-10 produced in MLR media” value in experiment [3] (spleen cells taken 20 days after grafting, hsp60 and p12 treated mice pooled, control mice 3.5±0.6, p=0.004) amounted to 8 ± 1.4 ng/mL. In addition, the “IFNγ produced in MLR media” value in experiment [3] (spleen cells taken 20 days after grafting, hsp60 and p12 treated mice pooled, control mice 9.25±1.7, p=0.002) amounted to 3.13 ± 1.4 ng/mL.
